{"source": "the supplement of paper PMC11246515", "assay": "total protein half-life in vivo (active degradation + dilution); higher = more stable protein", "key": {"[1]": {"settings": "E. coli NCM3722 delta-clpP delta-lon delta-hslV, growth: N-lim chemostat, doubling time 6 h"}, "[2]": {"settings": "wild type E. coli NCM3722, growth: C-lim chemostat, doubling time 3 h"}, "[3]": {"settings": "wild type E. coli NCM3722, growth: C-lim chemostat, doubling time 6 h"}, "[4]": {"settings": "wild type E. coli NCM3722, growth: C-lim chemostat, doubling time 12 h"}, "[5]": {"settings": "E. coli NCM3722 delta-hslV, growth: N-lim chemostat, doubling time 6 h"}, "[6]": {"settings": "E. coli NCM3722 delta-lon, growth: N-lim chemostat, doubling time 6 h"}, "[7]": {"settings": "E. coli NCM3722 delta-smpB, growth: N-lim chemostat, doubling time 6 h"}, "[8]": {"settings": "wild type E. coli NCM3722, growth: N-lim chemostat, doubling time 6 h"}, "[9]": {"settings": "wild type E. coli NCM3722, growth: N-lim chemostat, doubling time 12 h"}, "[10]": {"settings": "wild type E. coli NCM3722, growth: P-lim chemostat, doubling time 6 h"}, "[11]": {"settings": "wild type E. coli NCM3722, growth: P-lim chemostat, doubling time 12 h"}, "[12]": {"settings": "E. coli NCM3722 delta-clpP, growth: N-lim chemostat, doubling time 6 h"}}, "note": "± gives the standard deviation of the averaged measurements.", "data": [{"sequence": "MIKSKIVLLSALVSCALISGCKEENKTNVSIEFMHSSVEQERQAVISKLIARFEKENPGITVKQVPVEEDAYNTKVITLSRSGSLPEVIETSHDYAKVMDKEQLIDRKAVATVISNVGEGAFYDGVLRIVRTEDGSAWTGVPVSAWIGGIWYRKDVLAKAGLEEPKNWQQLLDVAQKLNDPANKKYGIALPTAESVLTEQSFSQFALSNQANVFNAEGKITLDTPEMMQALTYYRDLTANTMPGSNDIMEVKDAFMNGTAPMAIYSTYILPAVIKEGDPKNVGFVVPTEKNSAVYGMLTSLTITAGQKTEETEAAEKFVTFMEQADNIADWVMMSPGAALPVNKAVVTTATWKDNDVIKALGELPNQLIGELPNIQVFGAVGDKNFTRMGDVTGSGVVSSMVHNVTVGKADLSTTLQASQKKLDELIEQH", "values": [{"measurement": "total protein half-life in vivo", "setting": "[1]", "result": 5.01, "unit": "h"}, {"measurement": "total protein half-life in vivo", "setting": "[2]", "result": 3, "unit": "h"}, {"measurement": "total protein half-life in vivo", "setting": "[3]", "result": "4.35 ± 1.8", "unit": "h"}, {"measurement": "total protein half-life in vivo", "setting": "[4]", "result": 13.3, "unit": "h"}]}, {"sequence": "MATIKDVARLAGVSVATVSRVINNSPKASEASRLAVHSAMESLSYHPNANARALAQQTTETVGLVVGDVSDPFFGAMVKAVEQVAYHTGNFLLIGNGYHNEQKERQAIEQLIRHRCAALVVHAKMIPDADLASLMKQMPGMVLINRILPGFENRCIALDDRYGAWLATRHLIQQGHTRIGYLCSNHSISDAEDRLQGYYDALAESGIAANDRLVTFGEPDESGGEQAMTELLGRGRNFTAVACYNDSMAAGAMGVLNDNGIDVPGEISLIGFDDVLVSRYVRPRLTTVRYPIVTMATQAAELALALADNRPLPEITNVFSPTLVRRHSVSTPSLEASHHATSD", "values": [{"measurement": "total protein half-life in vivo", "setting": "[1]", "result": "5.91 ± 1.8", "unit": "h"}, {"measurement": "total protein half-life in vivo", "setting": "[5]", "result": "3.24 ± 0.35", "unit": "h"}, {"measurement": "total protein half-life in vivo", "setting": "[6]", "result": "2.72 ± 0.32", "unit": "h"}, {"measurement": "total protein half-life in vivo", "setting": "[7]", "result": "2.572 ± 0.0072", "unit": "h"}, {"measurement": "total protein half-life in vivo", "setting": "[2]", "result": "2.29 ± 0.2", "unit": "h"}, {"measurement": "total protein half-life in vivo", "setting": "[3]", "result": "4.35 ± 0.17", "unit": "h"}, {"measurement": "total protein half-life in vivo", "setting": "[4]", "result": "7.06 ± 0.13", "unit": "h"}, {"measurement": "total protein half-life in vivo", "setting": "[8]", "result": "2.8 ± 0.21", "unit": "h"}, {"measurement": "total protein half-life in vivo", "setting": "[9]", "result": "3.77 ± 0.39", "unit": "h"}, {"measurement": "total protein half-life in vivo", "setting": "[10]", "result": "3.26 ± 0.047", "unit": "h"}, {"measurement": "total protein half-life in vivo", "setting": "[11]", "result": "6.28 ± 0.3", "unit": "h"}]}, {"sequence": "MMDNDNSLNKRPTFKRALRNISMTSIFITMMLIWLLLSVTSVLTLKQYAQKNLALTAATMTYSLEAAVVFADGPAATETLAALGQQGQFSTAEVRDKQQNILASWHYTRKDPGDTFSNFISHWLFPAPIIQPIRHNGETIGEVRLTARDSSISHFIWFSLAVLTGCILLASGIAITLTRHLHNGLVEALKNITDVVHDVRSNRNFSRRVSEERIAEFHRFALDFNSLLDEMEEWQLRLQAKNAQLLRTALHDPLTGLANRAAFRSGINTLMNNSDARKTSALLFLDGDNFKYINDTWGHATGDRVLIEIAKRLAEFGGLRHKAYRLGGDEFAMVLYDVQSESEVQQICSALTQIFNLPFDLHNGHQTTMTLSIGYAMTIEHASAEKLQELADHNMYQAKHQRAEKLVR", "values": [{"measurement": "total protein half-life in vivo", "setting": "[1]", "result": "4.053 ± 0.0067", "unit": "h"}, {"measurement": "total protein half-life in vivo", "setting": "[8]", "result": 0.877, "unit": "h"}, {"measurement": "total protein half-life in vivo", "setting": "[10]", "result": 1.69, "unit": "h"}]}, {"sequence": "MTEQQISRTQAWLESLRPKTLPLAFAAIIVGTALAWWQGHFDPLVALLALITAGLLQILSNLANDYGDAVKGSDKPDRIGPLRGMQKGVITQQEMKRALIITVVLICLSGLALVAVACHTLADFVGFLILGGLSIIAAITYTVGNRPYGYIGLGDISVLVFFGWLSVMGSWYLQAHTLIPALILPATACGLLATAVLNINNLRDINSDRENGKNTLVVRLGEVNARRYHACLLMGSLVCLALFNLFSLHSLWGWLFLLAAPLLVKQARYVMREMDPVAMRPMLERTVKGALLTNLLFVLGIFLSQWAA", "values": [{"measurement": "total protein half-life in vivo", "setting": "[12]", "result": "5.652 ± 0.0067", "unit": "h"}, {"measurement": "total protein half-life in vivo", "setting": "[5]", "result": 6.01, "unit": "h"}, {"measurement": "total protein half-life in vivo", "setting": "[3]", "result": 6.18, "unit": "h"}, {"measurement": "total protein half-life in vivo", "setting": "[4]", "result": 12.6, "unit": "h"}]}, {"sequence": "MSHSSAPERATGAVITDWRPEDPAFWQQRGQRIASRNLWISVPCLLLAFCVWMLFSAVAVNLPKVGFNFTTDQLFMLTALPSVSGALLRVPYSFMVPIFGGRRWTAFSTGILIIPCVWLGFAVQDTSTPYSVFIIISLLCGFAGANFASSMANISFFFPKQKQGGALGLNGGLGNMGVSVMQLVAPLVVSLSIFAVFGSQGVKQPDGTELYLANASWIWVPFLAIFTIAAWFGMNDLATSKASIKEQLPVLKRGHLWIMSLLYLATFGSFIGFSAGFAMLSKTQFPDVQILQYAFFGPFIGALARSAGGALSDRLGGTRVTLVNFILMAIFSGLLFLTLPTDGQGGSFMAFFAVFLALFLTAGLGSGSTFQMISVIFRKLTMDRVKAEGGSDERAMREAATDTAAALGFISAIGAIGGFFIPKAFGSSLALTGSPVGAMKVFLIFYIACVVITWAVYGRHSKK", "values": [{"measurement": "total protein half-life in vivo", "setting": "[9]", "result": 8.46, "unit": "h"}]}, {"sequence": "MNTRQLLSVGIDIGTTTTQVIFSRLELVNRAAVSQVPRYEFIKREISWQSPVFFTPVDKQGGLKEAELKTLILEQYHAAGIEPESVDSGAIIITGESAKTRNARPAVMALSQSLGDFVVASAGPHLESVIAGHGAGAQTLSEQRLCRVLNIDIGGGTANYALFDAGKISGTACLNVGGRLLETDSHGRVVYAHKPGQMIVDECFGAGTDARSLTGAQLVQVTRRMAELIVEVIDGTLSPLAQALMQTGLLPAGVTPEIITLSGGVGECYRHQPADPFCFADIGPLLATALHDHPRLREMNVQFPAQTVRATVIGAGAHTLSLSGSTIWLEGVQLPLRNLPVAIPIDETDLVGAWQQALIQLDLDPKTDAYVLALPASLPVRYAAVLTVINALVDFVARFPNPHPLLVVAGQDFGKALGMLLRPQLQQLPLAVIDEVIVRAGDYIDIGTPLFGGSVVPVTVKSLAFPS", "values": [{"measurement": "total protein half-life in vivo", "setting": "[1]", "result": 5.67, "unit": "h"}]}, {"sequence": "MNALTAVQNNAVDSGQDYSGFTLTPSAQSPRLLELTFTEQTTKQFLEQVAEWPVQALEYKSFLRFRVAKILDDLCANQLQPLLLKTLLNRAEGALLINAVGVDDVKQADEMVKLATAVAHLIGRSNFDAMSGQYYARFVVKNVDNSDSYLRQPHRVMELHNDGTYVEEITDYVLMMKIDEQNMQGGNSLLLHLDDWEHLDNYFRHPLARRPMRFAAPPSKNVSKDVFHPVFDVDQQGRPVMRYIDQFVQPKDFEEGVWLSELSDAIETSKGILSVPVPVGKFLLINNLFWLHGRDRFTPHPDLRRELMRQRGYFAYASNHYQTHQ", "values": [{"measurement": "total protein half-life in vivo", "setting": "[1]", "result": "5.49 ± 0.24", "unit": "h"}, {"measurement": "total protein half-life in vivo", "setting": "[12]", "result": "1.73 ± 0.11", "unit": "h"}, {"measurement": "total protein half-life in vivo", "setting": "[2]", "result": "0.794 ± 0.23", "unit": "h"}, {"measurement": "total protein half-life in vivo", "setting": "[3]", "result": "1.18 ± 0.23", "unit": "h"}, {"measurement": "total protein half-life in vivo", "setting": "[4]", "result": "0.791 ± 0.35", "unit": "h"}, {"measurement": "total protein half-life in vivo", "setting": "[8]", "result": 1.3, "unit": "h"}, {"measurement": "total protein half-life in vivo", "setting": "[9]", "result": "1.1 ± 0.12", "unit": "h"}, {"measurement": "total protein half-life in vivo", "setting": "[11]", "result": "1.17 ± 0.72", "unit": "h"}]}, {"sequence": "MSETASWQPSASIPNLLKRAAIMAEIRRFFADRGVLEVETPCMSQATVTDIHLVPFETRFVGPGHSQGMNLWLMTSPEYHMKRLLVAGCGPVFQLCRSFRNEEMGRYHNPEFTMLEWYRPHYDMYRLMNEVDDLLQQVLDCPAAESLSYQQAFLRYLEIDPLSADKTQLREVAAKLDLSNVADTEEDRDTLLQLLFTFGVEPNIGKEKPTFVYHFPASQASLAQISTEDHRVAERFEVYYKGIELANGFHELTDAREQQQRFEQDNRKRAARGLPQHPIDQNLIEALKVGMPDCSGVALGVDRLVMLALGAETLAEVIAFSVDRA [P0A8N7]", "values": [{"measurement": "total protein half-life in vivo", "setting": "[1]", "result": 5.63, "unit": "h"}, {"measurement": "total protein half-life in vivo", "setting": "[12]", "result": 4.37, "unit": "h"}, {"measurement": "total protein half-life in vivo", "setting": "[5]", "result": 3.95, "unit": "h"}, {"measurement": "total protein half-life in vivo", "setting": "[6]", "result": 3.35, "unit": "h"}, {"measurement": "total protein half-life in vivo", "setting": "[7]", "result": "3.93 ± 0.61", "unit": "h"}, {"measurement": "total protein half-life in vivo", "setting": "[2]", "result": "2.71 ± 0.4", "unit": "h"}, {"measurement": "total protein half-life in vivo", "setting": "[3]", "result": 6.14, "unit": "h"}, {"measurement": "total protein half-life in vivo", "setting": "[4]", "result": 9.92, "unit": "h"}, {"measurement": "total protein half-life in vivo", "setting": "[8]", "result": 3.34, "unit": "h"}, {"measurement": "total protein half-life in vivo", "setting": "[10]", "result": "6.35 ± 0.51", "unit": "h"}, {"measurement": "total protein half-life in vivo", "setting": "[11]", "result": "14.41 ± 0.11", "unit": "h"}]}, {"sequence": "MKKIICLVITLLMTLPVYAKLTAHEEARINAMLEGLAQKKDLIFVRNGDEHTCYEAVSHLRLKLGNTRNRIDTAEQFIDKVASSSSITGKPYIVKIPGKSDENAQPFLHALIAQTDKTVPAEGN", "values": [{"measurement": "total protein half-life in vivo", "setting": "[4]", "result": 3.18, "unit": "h"}]}]}
